Drawing on PMC5432305, “Fungal lectin MpL enables entry of protein drugs into cancer cells and their subcellular targeting” (Oncotarget, 2017), this text covers binding result and Ki for 4 molecules.

Sequences and labels used below:
T1: Papain (UniProt P00784 134-345)
T1 construct: also called cysteine peptidase papain; cysteine protease papain; source: bought: Sigma
T1 sequence (looked up): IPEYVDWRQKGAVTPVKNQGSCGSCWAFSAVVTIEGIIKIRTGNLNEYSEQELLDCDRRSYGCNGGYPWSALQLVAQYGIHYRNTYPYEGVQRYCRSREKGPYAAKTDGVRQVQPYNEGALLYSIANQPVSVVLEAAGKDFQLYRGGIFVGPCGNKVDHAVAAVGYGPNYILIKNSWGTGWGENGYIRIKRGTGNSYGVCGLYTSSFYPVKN

T2: Papain (UniProt P00784 134-345)
T2 chain: T1 sequence (looked up)

B1: Recombinant cystatin C (CysC) (natural protein, human, UniProt P01034 27-146, looked up)
chain: SSPGKPPRLVGGPMDASVEEEGVRRALDFAVGEYNKASNDMYHSRALQVVRARKQIVAGVNYFLDVELGRTTCTKTQPNLDNCPFHDQPHLKRKAFCSFQIYAVPWQGTMTLSKSTCQDA
notes: Human cystatin C without its signal peptide of 26 amino acids; It was cloned through NdeI and BamHI into pET11a, so an initiator methionine is likely; also called unlinked CysC
B2: Recombinant clitocypin (Clt) (natural protein, UniProt Q3Y9I6 1-152, looked up)
chain: MASLEDGTYRLRAVTTSNPDPGVGGEYATVEGARQPVKAEPSTPPFFERQIWQVTRNSDGQSTIKYQGLNAPFEYGFSYDQLEQNAPVIAGDPKEYILQLVPSTTDVYIIRAPIQRVGVDVEVGVQGNNLVYKFFPVDGSGGDRPAWRFTRE
notes: also called rClt; unlinked Clt; source: E. coli, purified as described [19]
B3: CysC-MpL fusion protein (cystatin C, (GGGGS)3 linker, MpL) (other)
chain: SSPGKPPRLVGGPMDASVEEEGVRRALDFAVGEYNKASNDMYHSRALQVVRARKQIVAGVNYFLDVELGRTTCTKTQPNLDNCPFHDQPHLKRKAFCSFQIYAVPWQGTMTLSKSTCQDAGGGGSGGGGSGGGGSMSTQVSSGQTYKITNVKAGTVIDLSGEDNKSIIGYPYHSGKNQQWTFNWTGKAWTLRSASSGSYLGIEGTPADGTRLVAVNDPFEWHIWRDEANENAFRIFVPFTNYNLDLSGYGDTTPGTPVQLWWTWEGLHQTWTIDRP
modifications: Cystatin C without its 26-residue signal peptide (stated for unlinked CysC, assumed for the fusion). (GGGGS)3 linker kept because it joins the two domains. Vector start Met not added; MpL Met1 may be absent in the fusion. Dimeric forms were observed; copies given per chain.
B4: Clt-MpL fusion protein (clitocypin, (GGGGS)3 linker, MpL) (other)
chain: MASLEDGTYRLRAVTTSNPDPGVGGEYATVEGARQPVKAEPSTPPFFERQIWQVTRNSDGQSTIKYQGLNAPFEYGFSYDQLEQNAPVIAGDPKEYILQLVPSTTDVYIIRAPIQRVGVDVEVGVQGNNLVYKFFPVDGSGGDRPAWRFTREGGGGSGGGGSGGGGSMSTQVSSGQTYKITNVKAGTVIDLSGEDNKSIIGYPYHSGKNQQWTFNWTGKAWTLRSASSGSYLGIEGTPADGTRLVAVNDPFEWHIWRDEANENAFRIFVPFTNYNLDLSGYGDTTPGTPVQLWWTWEGLHQTWTIDRP
modifications: Clitocypin species taken from the candidate for the printed accession Q3Y9I6; MpL species is printed. (GGGGS)3 linker kept because it joins the two domains. MpL Met1 may be absent in the fusion. Dimeric forms were observed; copies given per chain.

The target in one assay is T1, Papain. The assay can be described thus: enzyme inhibition kinetics (Ki, Henderson equation for tight binding competitive inhibitors); papain 2.6 nM, different concentrations of inhibitor proteins, 0.1 M MES, 5 mM DTT, 0.1 mM Z-Phe-Arg-AMC, pH 6.5, 25°C, fluorescence 370/460 nm. Conditions: both partners purified.
With B1, the binding result is given as “binds”. The same measure, in the same setting: as for B2, the entry is “binds”.

For another assay, the target named is T2, Papain.
Assay: not given
Conditions: not given
What is called Ki is the equilibrium dissociation constant of an inhibitor or competing ligand from its target. Read a high Ki as weaker binding. In the case of B3, the affinity corresponds to a Ki of 41 nM. Molecule B4 gave a Ki of 161 nM.

Turning to B1, the affinity corresponds to a Ki of 85.5 nM. For B2, the affinity, expressed as Ki, was 60.8 nM.
